Experiments:
Jak2 = Jak2 (UniProt O60674); test: phosphorylation enrichment, bacterial display (enrichment ratio); higher = better substrate or ligand; peptides without Tyr show the background
FGFR1 = FGFR1 (UniProt P11362); test: as above
FGFR3 = FGFR3 (UniProt P22607); test: as above
Fyn = Fyn (UniProt P06241); test: as above
Hck = Hck (UniProt P08631); test: as above
c-Src = test: as above
Fes = Fes (UniProt P07332); test: as above
AncSZ = test: as above
MERTK = MERTK (UniProt Q12866); test: as above
EPHB2 = EPHB2 (UniProt P29323); test: as above
Fer (mouse) = test: as above
c-Abl (mouse) = test: as above
EPHB1 = EPHB1 (UniProt P54762); test: as above
Sequence of EPHB1 (P54762 whole entry, looked up): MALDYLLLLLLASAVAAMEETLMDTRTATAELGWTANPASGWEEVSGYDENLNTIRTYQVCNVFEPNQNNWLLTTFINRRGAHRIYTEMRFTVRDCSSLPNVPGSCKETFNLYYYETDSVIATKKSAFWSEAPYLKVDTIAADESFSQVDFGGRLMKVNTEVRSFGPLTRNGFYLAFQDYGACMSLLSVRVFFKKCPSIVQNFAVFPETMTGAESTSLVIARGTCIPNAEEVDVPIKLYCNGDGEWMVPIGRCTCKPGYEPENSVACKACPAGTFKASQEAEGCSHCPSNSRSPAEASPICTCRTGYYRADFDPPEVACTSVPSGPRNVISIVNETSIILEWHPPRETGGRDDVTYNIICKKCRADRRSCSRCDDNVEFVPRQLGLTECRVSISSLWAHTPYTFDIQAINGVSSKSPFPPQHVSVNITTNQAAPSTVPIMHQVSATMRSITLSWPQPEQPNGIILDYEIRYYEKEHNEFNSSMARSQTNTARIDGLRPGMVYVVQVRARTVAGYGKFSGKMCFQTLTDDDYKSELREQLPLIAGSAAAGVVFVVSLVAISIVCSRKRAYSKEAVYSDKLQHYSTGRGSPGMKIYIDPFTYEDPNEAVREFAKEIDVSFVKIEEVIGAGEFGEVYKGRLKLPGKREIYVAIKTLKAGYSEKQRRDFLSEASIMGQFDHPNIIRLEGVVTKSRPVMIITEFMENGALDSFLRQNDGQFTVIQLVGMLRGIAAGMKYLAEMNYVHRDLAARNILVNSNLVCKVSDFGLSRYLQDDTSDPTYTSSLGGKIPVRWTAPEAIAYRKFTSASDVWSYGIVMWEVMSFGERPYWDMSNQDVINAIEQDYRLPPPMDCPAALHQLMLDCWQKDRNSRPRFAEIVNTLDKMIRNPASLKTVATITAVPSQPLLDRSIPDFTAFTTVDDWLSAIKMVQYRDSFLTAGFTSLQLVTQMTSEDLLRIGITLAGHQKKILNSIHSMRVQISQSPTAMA

Grb2 SH2 = Grb2 SH2 (UniProt P62993); test: SH2 binding enrichment of the phosphorylated peptide, bacterial display (enrichment ratio); higher = better substrate or ligand; peptides without Tyr show the background
Sequence of Grb2 SH2 (P62993 whole entry, looked up): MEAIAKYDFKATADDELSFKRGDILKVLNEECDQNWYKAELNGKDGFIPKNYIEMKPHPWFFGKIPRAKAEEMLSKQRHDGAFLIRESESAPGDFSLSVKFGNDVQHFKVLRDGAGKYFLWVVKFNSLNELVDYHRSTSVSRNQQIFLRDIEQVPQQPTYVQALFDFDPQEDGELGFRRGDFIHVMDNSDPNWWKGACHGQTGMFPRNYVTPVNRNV

SHP2-C SH2 = test: as above
c-Src SH2 = test: as above
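For SH2 binding enrichment of the phosphorylated peptide, bacterial display in this document: peptide library displayed on the E. coli surface as eCPX fusions, selected cells deep-sequenced, score is each peptide's frequency after selection divided by its frequency in the input.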
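For phosphorylation enrichment, bacterial display in this document: 11-residue human phosphosite peptides and single-mutation variants displayed on the E. coli surface, counted by deep sequencing, each peptide's frequency after selection divided by its frequency in the unselected input library; frequency after pTyr selection over input frequency; kinase dosed for 20-30% of maximal phosphorylation in three min.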

Sequence of FGFR3 (P22607 whole entry, looked up): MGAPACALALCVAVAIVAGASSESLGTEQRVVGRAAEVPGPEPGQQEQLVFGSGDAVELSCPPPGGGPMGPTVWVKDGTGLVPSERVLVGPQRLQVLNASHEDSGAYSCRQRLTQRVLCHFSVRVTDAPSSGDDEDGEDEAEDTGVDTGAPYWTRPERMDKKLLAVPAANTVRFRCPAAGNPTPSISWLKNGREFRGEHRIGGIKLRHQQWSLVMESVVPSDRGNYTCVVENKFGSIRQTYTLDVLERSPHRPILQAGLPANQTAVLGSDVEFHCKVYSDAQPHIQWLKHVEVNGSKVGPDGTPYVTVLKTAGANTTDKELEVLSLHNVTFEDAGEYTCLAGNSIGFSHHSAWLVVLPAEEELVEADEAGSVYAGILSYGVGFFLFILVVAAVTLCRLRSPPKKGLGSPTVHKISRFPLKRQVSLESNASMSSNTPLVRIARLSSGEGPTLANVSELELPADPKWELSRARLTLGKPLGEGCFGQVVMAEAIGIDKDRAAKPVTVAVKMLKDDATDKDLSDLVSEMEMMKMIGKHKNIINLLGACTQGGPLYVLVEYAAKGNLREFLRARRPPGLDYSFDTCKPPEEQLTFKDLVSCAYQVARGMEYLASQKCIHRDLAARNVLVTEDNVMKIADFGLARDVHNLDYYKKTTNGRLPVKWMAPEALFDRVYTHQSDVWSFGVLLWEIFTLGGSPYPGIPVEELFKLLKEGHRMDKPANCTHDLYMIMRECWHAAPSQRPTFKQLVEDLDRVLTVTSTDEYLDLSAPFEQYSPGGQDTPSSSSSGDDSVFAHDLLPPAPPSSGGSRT
Sequence of Hck (P08631 whole entry, looked up): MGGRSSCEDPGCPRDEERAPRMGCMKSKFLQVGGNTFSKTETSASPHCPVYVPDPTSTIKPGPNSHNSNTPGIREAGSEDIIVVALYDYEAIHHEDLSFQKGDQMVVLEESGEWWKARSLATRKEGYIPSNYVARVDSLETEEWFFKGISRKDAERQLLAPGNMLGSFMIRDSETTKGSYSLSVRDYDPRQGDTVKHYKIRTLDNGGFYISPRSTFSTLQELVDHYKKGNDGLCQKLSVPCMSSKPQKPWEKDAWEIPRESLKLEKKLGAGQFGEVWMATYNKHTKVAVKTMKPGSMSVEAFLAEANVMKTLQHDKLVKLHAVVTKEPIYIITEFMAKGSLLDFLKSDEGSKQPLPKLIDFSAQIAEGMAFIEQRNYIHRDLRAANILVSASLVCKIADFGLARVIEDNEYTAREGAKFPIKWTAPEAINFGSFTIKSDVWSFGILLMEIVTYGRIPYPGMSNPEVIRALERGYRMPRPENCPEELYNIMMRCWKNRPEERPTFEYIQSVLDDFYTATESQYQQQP
Sequence of Fyn (P06241 whole entry, looked up): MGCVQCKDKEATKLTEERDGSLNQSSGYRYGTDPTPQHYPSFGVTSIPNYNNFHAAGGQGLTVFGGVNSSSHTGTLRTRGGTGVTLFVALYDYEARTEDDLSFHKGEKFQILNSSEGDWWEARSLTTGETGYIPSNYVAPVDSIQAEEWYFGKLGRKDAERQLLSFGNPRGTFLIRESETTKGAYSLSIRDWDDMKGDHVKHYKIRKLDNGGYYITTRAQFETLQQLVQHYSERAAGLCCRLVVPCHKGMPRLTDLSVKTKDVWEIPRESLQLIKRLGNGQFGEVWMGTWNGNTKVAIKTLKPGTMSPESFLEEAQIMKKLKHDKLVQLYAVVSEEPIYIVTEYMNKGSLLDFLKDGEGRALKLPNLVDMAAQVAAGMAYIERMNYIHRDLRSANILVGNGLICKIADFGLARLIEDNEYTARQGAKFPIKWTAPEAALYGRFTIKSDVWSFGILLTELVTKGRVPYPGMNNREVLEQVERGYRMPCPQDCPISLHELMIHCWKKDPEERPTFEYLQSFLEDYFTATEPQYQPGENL
Sequence of Jak2 (O60674 whole entry, looked up): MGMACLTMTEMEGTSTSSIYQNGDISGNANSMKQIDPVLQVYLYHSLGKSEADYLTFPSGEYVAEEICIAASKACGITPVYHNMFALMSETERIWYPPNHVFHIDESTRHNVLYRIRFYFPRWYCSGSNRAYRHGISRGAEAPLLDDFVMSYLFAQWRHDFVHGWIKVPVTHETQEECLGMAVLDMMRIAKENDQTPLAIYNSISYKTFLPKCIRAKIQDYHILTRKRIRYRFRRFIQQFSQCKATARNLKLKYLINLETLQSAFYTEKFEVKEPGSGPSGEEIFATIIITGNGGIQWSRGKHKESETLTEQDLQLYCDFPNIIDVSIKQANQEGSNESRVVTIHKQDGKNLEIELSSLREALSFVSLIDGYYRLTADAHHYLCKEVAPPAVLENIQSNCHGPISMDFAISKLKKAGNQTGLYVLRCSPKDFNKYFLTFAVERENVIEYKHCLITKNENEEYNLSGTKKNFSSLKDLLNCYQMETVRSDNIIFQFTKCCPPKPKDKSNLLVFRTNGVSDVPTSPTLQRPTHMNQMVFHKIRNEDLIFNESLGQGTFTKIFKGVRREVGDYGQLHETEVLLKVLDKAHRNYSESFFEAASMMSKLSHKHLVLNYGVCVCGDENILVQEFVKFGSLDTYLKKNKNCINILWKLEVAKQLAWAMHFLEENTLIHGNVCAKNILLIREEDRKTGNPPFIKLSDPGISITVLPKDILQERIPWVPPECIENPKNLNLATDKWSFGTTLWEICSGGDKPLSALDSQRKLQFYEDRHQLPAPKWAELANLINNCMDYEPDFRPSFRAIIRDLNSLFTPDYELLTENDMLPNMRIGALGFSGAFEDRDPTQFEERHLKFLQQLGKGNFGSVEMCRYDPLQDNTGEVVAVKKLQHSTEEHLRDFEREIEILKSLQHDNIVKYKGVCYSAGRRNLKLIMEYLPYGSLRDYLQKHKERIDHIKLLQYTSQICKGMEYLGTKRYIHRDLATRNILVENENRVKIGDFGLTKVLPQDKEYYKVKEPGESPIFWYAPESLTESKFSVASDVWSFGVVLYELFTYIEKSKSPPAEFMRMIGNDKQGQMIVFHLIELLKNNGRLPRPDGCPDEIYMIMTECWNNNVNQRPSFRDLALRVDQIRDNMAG
Sequence of FGFR1 (P11362 whole entry, looked up): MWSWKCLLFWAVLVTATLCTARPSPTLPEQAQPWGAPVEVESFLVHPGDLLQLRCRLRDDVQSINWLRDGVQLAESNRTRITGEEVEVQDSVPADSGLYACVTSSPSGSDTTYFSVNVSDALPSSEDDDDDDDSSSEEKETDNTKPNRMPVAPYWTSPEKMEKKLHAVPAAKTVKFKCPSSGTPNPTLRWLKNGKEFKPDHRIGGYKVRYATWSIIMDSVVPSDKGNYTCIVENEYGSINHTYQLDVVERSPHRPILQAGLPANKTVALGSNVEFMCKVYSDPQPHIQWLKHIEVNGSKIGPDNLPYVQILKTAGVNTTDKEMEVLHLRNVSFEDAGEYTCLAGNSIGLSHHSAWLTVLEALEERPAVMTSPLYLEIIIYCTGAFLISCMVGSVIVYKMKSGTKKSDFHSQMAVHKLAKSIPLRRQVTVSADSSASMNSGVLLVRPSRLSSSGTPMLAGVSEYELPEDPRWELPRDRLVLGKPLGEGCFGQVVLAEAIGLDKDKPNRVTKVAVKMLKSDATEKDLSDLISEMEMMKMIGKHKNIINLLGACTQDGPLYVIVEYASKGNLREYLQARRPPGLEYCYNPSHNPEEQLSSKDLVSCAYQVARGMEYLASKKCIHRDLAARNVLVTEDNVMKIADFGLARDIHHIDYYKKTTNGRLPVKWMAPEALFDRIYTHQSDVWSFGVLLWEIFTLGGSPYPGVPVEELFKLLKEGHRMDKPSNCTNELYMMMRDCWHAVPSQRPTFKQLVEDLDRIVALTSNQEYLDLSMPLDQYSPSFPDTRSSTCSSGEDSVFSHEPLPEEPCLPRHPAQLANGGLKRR

Sequence | phosphorylation enrichment (Jak2) | phosphorylation enrichment (FGFR1) | phosphorylation enrichment (FGFR3) | phosphorylation enrichment (Fyn) | phosphorylation enrichment (Hck) | phosphorylation enrichment (c-Src) | phosphorylation enrichment (Fes) | phosphorylation enrichment (AncSZ) | phosphorylation enrichment (MERTK) | phosphorylation enrichment (EPHB2) | phosphorylation enrichment (Fer (mouse)) | phosphorylation enrichment (c-Abl (mouse)) | phosphorylation enrichment (EPHB1) | SH2 binding enrichment (Grb2 SH2) | SH2 binding enrichment (SHP2-C SH2) | SH2 binding enrichment (c-Src SH2)
EHLNRYINDTF [TTLL10_Y446_S448N] | 1.08 | 0.525 | 0.654 | 0.467 | 0.49 | 0.517 | 1.08 | 0.853 | 0.46 | 0.608 | 0.53 | 0.751 | 0.567 | 6.49 | 0.728 | 1.02
EDKFMYLEFPQ [PTEN_Y240_F241L] | 1.38 | 2.44 | 2.26 | 0.889 | 1.01 | 1.2 | 1.34 | 1.71 | 0.664 | 0.756 | 0.673 | 1.14 | 0.879 | 0.797 | 0.616 | 0.435
FSQQTYYRVSN [ABCD1_Y180] | 6.78 | 6.2 | 4.51 | 1.18 | 3.2 | 3.18 | 0.756 | 0.831 | 2.85 | 1.06 | 0.392 | 0.72 | 1.83 | 0.86 | 0.672 | 0.82
CTTIHYNYLCN [TP53_Y234_M237L] | 0.655 | 0.505 | 0.594 | 0.51 | 0.536 | 0.394 | 0.84 | 0.873 | 0.436 | 0.491 | 0.568 | 0.479 | 0.482 | 1.45 | 4.87 | 4.93
RSAGKYDVYFI [MECP2_Y120_L124F] | 0.925 | 0.535 | 0.484 | 5.26 | 4.46 | 3.15 | 1.34 | 1.09 | 1.02 | 0.467 | 0.464 | 0.923 | 0.691 | 0.923 | 0.804 | 0.639
FMCKVYSDRQP [FGFR1_Y280_P283R] | 1.35 | 0.494 | 0.808 | 0.544 | 0.582 | 0.634 | 1.54 | 1.52 | 0.463 | 0.577 | 0.587 | 0.879 | 0.577 | 0.771 | 0.666 | 0.527
QTLTDYDTRFY [CSNK2A3_Y131_I133T] | 1.06 | 0.612 | 0.69 | 0.556 | 0.619 | 0.428 | 1.25 | 1.01 | 0.483 | 0.667 | 0.749 | 0.692 | 0.861 | 0.815 | 0.757 | 0.678
VFFGSYSCPFG [NKAP_Y104_R106C_YF] | 1.33 | 0.476 | 0.92 | 0.437 | 0.518 | 0.55 | 1.5 | 1.45 | 0.836 | 0.786 | 0.679 | 1.15 | 0.802 | 0.598 | 0.552 | 0.476
KLSFSYGQALQ [ALDOB_Y302_R304Q] | 1.03 | 0.503 | 0.72 | 0.422 | 0.383 | 0.41 | 1.1 | 1 | 0.437 | 0.564 | 0.529 | 0.686 | 0.649 | 0.861 | 0.703 | 0.475
VHSGTYQVTVC [MYBPC3_Y1043_R1048C] | 1.01 | 0.51 | 0.93 | 0.555 | 0.588 | 0.684 | 1.23 | 1.03 | 0.575 | 0.655 | 0.516 | 0.883 | 0.749 | 0.694 | 0.599 | 0.517
RLLVVYTWTQR [HBB_Y36_P37T] | 1.08 | 0.661 | 0.941 | 0.739 | 0.915 | 0.509 | 2.12 | 1.81 | 0.694 | 1.12 | 0.842 | 0.862 | 0.656 | 1.68 | 1.55 | 1.01
CSTIHYNYMCN [TP53_Y234_T230S] | 0.656 | 0.545 | 0.585 | 0.461 | 0.399 | 0.435 | 0.758 | 0.784 | 0.375 | 0.542 | 0.555 | 0.411 | 0.586 | 1.11 | 3.83 | 6.46
GFIISYREEEQ | 1.34 | 0.478 | 0.729 | 0.488 | 0.456 | 0.399 | 1.27 | 1.41 | 0.313 | 0.5 | 0.644 | 0.598 | 0.495 | 0.672 | 0.633 | 0.581
YDYKKYGKGLR [ZNF445_Y433] | 0.444 | 0.371 | 0.536 | 0.323 | 0.366 | 0.346 | 0.517 | 0.41 | 0.358 | 0.276 | 0.373 | 0.48 | 0.318 | 0.939 | 1.02 | 0.749
TDLAYYLVCKG [ASL_Y376_R379C] | 1.74 | 2.39 | 2.33 | 0.689 | 0.75 | 0.825 | 1.57 | 1.46 | 0.79 | 0.66 | 0.581 | 0.903 | 0.883 | 0.959 | 0.829 | 0.461
NDFGNYNQQPS [HNRNPA2B1_Y306] | 0.788 | 0.589 | 0.493 | 0.596 | 0.504 | 0.505 | 0.85 | 0.764 | 0.478 | 0.604 | 0.472 | 0.74 | 0.691 | 0.915 | 0.66 | 0.382
QTEAQYRFIFM [PTPN11_Y511_YF] | 1.78 | 0.893 | 1.02 | 0.612 | 0.688 | 0.702 | 1.92 | 1.18 | 0.58 | 0.467 | 0.785 | 1.82 | 0.774 | 0.627 | 0.777 | 0.355

Sequence | phosphorylation enrichment (Jak2) | phosphorylation enrichment (FGFR1) | phosphorylation enrichment (FGFR3) | phosphorylation enrichment (Fyn) | phosphorylation enrichment (Hck) | phosphorylation enrichment (c-Src) | phosphorylation enrichment (Fes) | phosphorylation enrichment (AncSZ) | phosphorylation enrichment (MERTK) | phosphorylation enrichment (EPHB2) | phosphorylation enrichment (Fer (mouse)) | phosphorylation enrichment (c-Abl (mouse)) | phosphorylation enrichment (EPHB1) | SH2 binding enrichment (Grb2 SH2) | SH2 binding enrichment (SHP2-C SH2) | SH2 binding enrichment (c-Src SH2)
WANPEYTGGFK | 0.734 | 0.43 | 0.646 | 0.422 | 0.575 | 0.685 | 1 | 1.29 | 0.364 | 0.383 | 0.413 | 0.917 | 0.549 | 0.801 | 0.618 | 0.656
MHLRQYKLLGG [GNAS_Y391_E392K] | 0.548 | 0.478 | 0.535 | 0.443 | 0.522 | 0.419 | 0.764 | 0.51 | 0.412 | 0.44 | 0.399 | 0.478 | 0.534 | 0.715 | 0.453 | 0.483
RISPEYKQNEI [GJB1_Y243_L239I] | 0.983 | 0.866 | 0.836 | 0.922 | 0.607 | 0.604 | 1.07 | 1.15 | 0.598 | 0.73 | 0.687 | 1.06 | 0.998 | 0.944 | 1.15 | 0.412
LIDGFYRLTED [JAK2_Y373_A377E_YF] | 1.11 | 0.537 | 0.747 | 0.66 | 0.552 | 0.895 | 1.54 | 1.31 | 0.549 | 0.89 | 0.613 | 0.974 | 0.586 | 0.699 | 0.678 | 0.661
ALADKYHGGGG [HBB_Y146_H144D] | 0.439 | 0.396 | 0.402 | 0.39 | 0.355 | 0.318 | 0.517 | 0.467 | 0.322 | 0.374 | 0.375 | 0.423 | 0.287 | 0.727 | 0.56 | 0.38
TTKAKYKTPIF [PLD2_Y573_T577I_YF] | 0.659 | 0.481 | 0.572 | 0.499 | 0.411 | 0.434 | 0.717 | 0.588 | 0.495 | 0.263 | 0.487 | 0.632 | 0.38 | 1.06 | 1.14 | 0.764
EATKGYLDDPT [G6PD_Y322] | 0.949 | 0.412 | 0.593 | 0.424 | 0.421 | 0.392 | 1.03 | 0.859 | 0.455 | 0.473 | 0.553 | 0.774 | 0.655 | 0.785 | 0.525 | 0.567
NKVKFYIPYMN [NCR1_Y84_D87Y] | 0.893 | 0.483 | 0.655 | 0.394 | 0.431 | 0.495 | 1.06 | 0.919 | 0.473 | 0.496 | 0.469 | 0.609 | 0.599 | 1.74 | 1.65 | 1.51
PPDGEYFTLQI [TP53_Y327_L323P] | 3.69 | 12.4 | 10.2 | 3.74 | 2.75 | 5.4 | 1.74 | 3.41 | 0.902 | 1.14 | 1.41 | 2.33 | 1.19 | 0.561 | 1.1 | 0.537
KLSCSYSHLSA [C4BPA_Y470_W473L] | 1.06 | 0.574 | 0.742 | 0.572 | 0.513 | 0.584 | 1.21 | 1.15 | 0.58 | 0.588 | 0.55 | 0.782 | 0.535 | 0.897 | 0.734 | 0.631
EREFKYDAHNF [OAT_Y50_G51D_YF] | 0.914 | 0.643 | 0.693 | 0.361 | 0.558 | 0.477 | 1.02 | 0.915 | 0.512 | 0.445 | 0.832 | 0.645 | 0.624 | 0.803 | 0.629 | 0.543
CPPKVYELMIA [ABL2_Y515_R519I] | 1.2 | 1.34 | 0.959 | 0.916 | 1.03 | 1.99 | 1.34 | 1.24 | 5.18 | 2.25 | 7.5 | 0.766 | 7.46 | 0.817 | 0.658 | 1.44
EQKKNYNAMKK [SCN5A_Y1495_Y1494N] | 1.01 | 0.643 | 0.826 | 0.394 | 0.489 | 0.524 | 1.07 | 0.847 | 0.44 | 0.561 | 0.538 | 1.1 | 0.427 | 0.895 | 0.973 | 0.597
GLALRYLSDHS [VWF_Y1584] | 0.898 | 0.565 | 0.583 | 0.465 | 0.549 | 0.539 | 0.838 | 0.873 | 0.38 | 0.471 | 0.723 | 0.501 | 0.518 | 0.732 | 0.557 | 0.444
RQLEIYRASRP [ERCC4_Y594] | 0.535 | 0.312 | 0.389 | 0.426 | 0.316 | 0.408 | 0.673 | 0.663 | 0.391 | 0.254 | 0.427 | 0.727 | 0.388 | 0.623 | 0.49 | 0.402
CTTIHYNFMCF [TP53_Y234_N239Y_YF] | 0.913 | 0.621 | 0.738 | 0.414 | 0.451 | 0.474 | 1.12 | 1.04 | 0.409 | 0.522 | 0.671 | 0.683 | 0.608 | 1.95 | 2.01 | 1.58
